From patent publication US5998154
Where “and” joins values, the source holds several entries; their conditions need not be identical. Equal values may be shown once. Read-outs that look alike come from different tables or passages of the source.

Legend:
[1] = biological target: rat sst1 receptor (expressed in stably transfected CHO-K1 cells, CHO-R1) (rat) (UniProt P28646); assay: dissociation from the receptor complex immunoprecipitated with R1-201 from CHO-R1 cells, no guanine nucleotide
[2] = biological target: rat sst1 receptor (expressed in stably transfected CHO-K1 cells, CHO-R1) (rat) (UniProt P28646); assay: PEG precipitation of solubilised radioligand-receptor complex from CHO-R1 cells
[3] = biological target: rat sst2A receptor (expressed in stably transfected CHO-K1 cells, CHO-R2 / CHO-R2A) (rat) (UniProt P30680); assay: dissociation from the receptor complex immunoprecipitated with R2-88 from GH4C1 cells, no guanine nucleotide
[4] = biological target: rat sst1 receptor (expressed in stably transfected CHO-K1 cells, CHO-R1) (rat) (UniProt P28646); assay: PEG precipitation of solubilised radioligand-receptor complex from CHO-R1 cells; remark: listed apart in the source
[5] = biological target: sst3 receptor (expressed in stably transfected CHO-K1 cells, CHO-R3); assay: PEG precipitation of solubilised radioligand-receptor complex from CHO-R3 cells
[6] = biological target: sst4 receptor (expressed in stably transfected CHO-K1 cells, CHO-R4); assay: PEG precipitation of solubilised radioligand-receptor complex from CHO-R4 cells
[7] = biological target: rat sst1 receptor (expressed in stably transfected CHO-K1 cells, CHO-R1) (rat) (UniProt P28646); assay: PEG precipitation of solubilised radioligand-receptor complex from CHO-R1 cells; remark: listed apart in the source
[8] = biological target: rat sst2A receptor (expressed in stably transfected CHO-K1 cells, CHO-R2 / CHO-R2A) (rat) (UniProt P30680); assay: PEG precipitation of solubilised radioligand-receptor complex from CHO-R2 cells
[9] = biological target: rat sst2A receptor (expressed in stably transfected CHO-K1 cells, CHO-R2 / CHO-R2A) (rat) (UniProt P30680); assay: as above; remark: listed apart in the source
[10] = biological target: sst4 receptor (expressed in stably transfected CHO-K1 cells, CHO-R4); assay: PEG precipitation of solubilised radioligand-receptor complex from CHO-R4 cells; remark: listed apart in the source
[11] = biological target: rat sst1 receptor (expressed in stably transfected CHO-K1 cells, CHO-R1) (rat) (UniProt P28646); assay: PEG precipitation of solubilised radioligand-receptor complex from CHO-R1 cells; remark: listed apart in the source
[12] = biological target: sst4 receptor (expressed in stably transfected CHO-K1 cells, CHO-R4); assay: PEG precipitation of solubilised radioligand-receptor complex from CHO-R4 cells; remark: listed apart in the source
[13] = biological target: rat sst2A receptor (expressed in stably transfected CHO-K1 cells, CHO-R2 / CHO-R2A) (rat) (UniProt P30680); assay: PEG precipitation of solubilised radioligand-receptor complex from CHO-R2 cells; remark: listed apart in the source
[14] = biological target: rat sst1 receptor (expressed in stably transfected CHO-K1 cells, CHO-R1) (rat) (UniProt P28646); assay: PEG precipitation of solubilised radioligand-receptor complex from CHO-R1 cells; remark: listed apart in the source

[125I-Tyr11]SRIF (peptide) gave a percent of specifically bound ligand dissociated [1] of 53%, a Precipitated Complex (cpm), PEG [2] of 7100 cpm and a percent of specifically bound ligand dissociated [3] of 12%. For the same substance, the Precipitated Complex (cpm), PEG [4] was 8350 cpm, the Precipitated Complex (cpm), PEG [5] was 683 cpm and the Precipitated Complex (cpm), PEG [6] was 4980 cpm and 10000 cpm. The Precipitated Complex (cpm), PEG [7] was 7060 cpm, the Precipitated Complex (cpm), PEG [8] was 8490 cpm and the Precipitated Complex (cpm), PEG [9] was 8840 cpm and 6330 cpm. The Precipitated Complex (cpm), PEG [10] was 10000 cpm, the Precipitated Complex (cpm), PEG [11] was 15100 cpm and the Precipitated Complex (cpm), PEG [12] was 12500 cpm. It also gave a Precipitated Complex (cpm), PEG [13] of 16200 cpm and a Precipitated Complex (cpm), PEG [14] of 706 cpm.
